In patent publication EP4700044A1, “PROTEIN ANALOGUE AND USE THEREOF” (Shanghai Duomirui Biotechnology., Ltd., priority 2023, dated 2024):

These substances were tested against FGFR1c (UniProt P11362) (assay: cell-based or functional assay).
FGFR1c, sequence (P11362 22-822): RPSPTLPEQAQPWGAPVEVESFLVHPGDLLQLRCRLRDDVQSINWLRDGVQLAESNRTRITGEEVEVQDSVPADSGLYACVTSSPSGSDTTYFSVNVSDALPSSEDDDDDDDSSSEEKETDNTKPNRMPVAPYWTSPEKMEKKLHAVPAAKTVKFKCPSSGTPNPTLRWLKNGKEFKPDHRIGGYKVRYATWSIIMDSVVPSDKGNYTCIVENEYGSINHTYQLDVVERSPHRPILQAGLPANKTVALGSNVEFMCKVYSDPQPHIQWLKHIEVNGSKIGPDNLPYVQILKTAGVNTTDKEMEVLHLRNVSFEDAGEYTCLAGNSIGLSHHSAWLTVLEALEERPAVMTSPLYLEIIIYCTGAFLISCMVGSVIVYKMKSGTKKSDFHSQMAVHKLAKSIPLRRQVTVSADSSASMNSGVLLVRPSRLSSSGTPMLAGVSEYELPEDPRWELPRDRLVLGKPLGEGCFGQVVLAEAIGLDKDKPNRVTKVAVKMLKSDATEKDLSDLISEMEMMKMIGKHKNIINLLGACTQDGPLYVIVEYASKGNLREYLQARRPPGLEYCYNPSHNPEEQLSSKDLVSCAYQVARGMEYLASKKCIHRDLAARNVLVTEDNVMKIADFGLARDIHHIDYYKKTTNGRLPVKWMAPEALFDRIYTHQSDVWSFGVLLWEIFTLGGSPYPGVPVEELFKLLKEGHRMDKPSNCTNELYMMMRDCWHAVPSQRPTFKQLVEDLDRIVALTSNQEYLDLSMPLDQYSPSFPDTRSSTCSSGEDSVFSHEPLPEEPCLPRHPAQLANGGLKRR

Row | Substance | EC50(nM), dual-luciferase reporter gene assay, iLite FGF21 assay ready cells
1 | Human mature FGF21 fusion protein with a N-terminal PAS15 modification (PAS15FGF21) (from UniProt Q9NSA1 29-209) (ligand) | 0.22 nM
2 | Human mature FGF21 fusion protein with a N-terminal PAS30 modification (PAS30FGF21) (ligand) | 0.3 nM
3 | Human mature FGF21 fusion protein with a N-terminal PAS50 modification (PAS50FGF21) (ligand) | 0.4 nM
4 | Human mature FGF21 fusion protein with a N-terminal PAS100 modification (PAS100FGF21) (ligand) | 0.62 nM
5 | Human mature FGF21 fusion protein with a N-terminal PAS200 modification (PAS200FGF21) (ligand) | 1.98 nM
